From the supplement of paper PMC10126150
± gives the standard deviation of the averaged measurements.

Test system: ATP
Test: switch fluorescence ratio, 500 uM ATP over buffer (Cy3 cluster intensity, sum of 5 cycles each) (fold (ratio)); higher = stronger signal-on switching upon ATP binding; sequences stand for … in TCGTCGGCAGCGTCAGATGTGTATAAGAGACAGTTTTTTTTTTTTTTTTTTTTTTTTT…TC
Conditions: aptamer strand: ATP DNA aptamer (quencher-CACCTGGGGGAGTATTGCGGAGGAAGG + anchor), 100 nM annealed; ATP concentration: 500 uM
Procedure, shortened: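 Clusters carrying Cy3-labelled switching strands on a modified Illumina MiSeq flow-cell were annealed to 100 nM quencher-labelled ATP aptamer and imaged in selection buffer. They were imaged again after 15 min with 500 uM ATP at 22 °C, over five buffer/ATP cycles with NaOH stripping and re-annealing in between. For each cluster, the fluorescence ratio is the summed Cy3 intensity of the target cycles divided by that of the buffer cycles, averaged per switch-domain sequence. Clusters outside 100-1000 RFU were left out.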
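Further: ATP exposure 15 min at 22 °C before imaging.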

Sequence | switch fluorescence ratio
GAGGGTTAGT | 0.9866 ± 0.0066
GAGGGTTGGC | 0.95 ± 0.084
GAGGGTTTGG | 0.989 ± 0.037
GAGGGTTTGT | 0.973 ± 0.039
GAGGTACCGC | 1.05 ± 0.029
GAGGTAGCGC | 0.98 ± 0.01
GAGGTATGGA | 0.9842 ± 0.0019
GAGGTATGTT | 0.999 ± 0.02
GAGGTCAAGG | 0.987 ± 0.033
GAGGTCATTC | 0.999 ± 0.029
GAGGTCGTAA | 1.05 ± 0.051
GAGGTGGCAG | 1.0097 ± 0.00096
GAGGTGTGGG | 0.981 ± 0.016
GAGGTGTTGC | 0.985 ± 0.035
GAGGTTAATA | 1.04 ± 0.021
GAGGTTATTA | 1 ± 0.066
GAGGTTGCTG | 0.987 ± 0.026
GAGGTTGTAC | 1.02 ± 0.012
GAGGTTTCAT | 0.997 ± 0.016
GAGTAAAACA | 1.16 ± 0.27
GAGTAAAGTT | 0.982 ± 0.02
GAGTAAGAGC | 1.017 ± 0.0075

Sequence | switch fluorescence ratio
GAGTAAGCGG | 1.01 ± 0.048
GAGTAAGGAC | 1.09 ± 0.061
GAGTAAGGTA | 1.02 ± 0.024
GAGTAAGTGG | 0.99 ± 0.039
GAGTAATCGG | 1.01 ± 0.049
GAGTACCCGG | 1 ± 0.018
GAGTAGAAGA | 1.01 ± 0.035
GAGTAGACGT | 0.998 ± 0.049
GAGTAGGGGT | 1.01 ± 0.022
GAGTATCTGC | 1.01 ± 0.079
GAGTATGCAT | 0.984 ± 0.023
GAGTATTCGG | 0.998 ± 0.031
GAGTATTGGG | 0.9897 ± 0.0087
GAGTATTGGT | 0.9817 ± 0.0094
GAGTATTTAA | 0.964 ± 0.058
GAGTCAAGGG | 0.998 ± 0.021
GAGTCAGGTA | 1.01 ± 0.029
GAGTCAGTGG | 0.984 ± 0.012
GAGTCCGCCT | 1.6 ± 0.093
GAGTCGAGGG | 0.961 ± 0.017
GAGTCGAGTG | 1.01 ± 0.048
GAGTCGGTGT | 1.026 ± 0.0063

Sequence | switch fluorescence ratio
GAGTCTAGCG | 1.02 ± 0.064
GAGTCTATTG | 1.023 ± 0.0022
GAGTCTGGGG | 0.978 ± 0.049
GAGTGAGCTT | 0.966 ± 0.046
GAGTGAGTAG | 0.9794 ± 0.0059
GAGTGCGGGA | 1.02 ± 0.044
GAGTGCTCGA | 1.01 ± 0.074
GAGTGGACGG | 0.998 ± 0.018
GAGTGGCACC | 1.04 ± 0.042
GAGTGGCTGG | 0.979 ± 0.014
GAGTGGGCTC | 0.9879 ± 0.0045
GAGTGGGGGA | 0.99 ± 0.023
GAGTGGGTGG | 0.99 ± 0.037
GAGTGGTACC | 1.01 ± 0.025
GAGTGGTGTG | 0.979 ± 0.035
GAGTGTGTGT | 1.006 ± 0.0053
GAGTGTTCAG | 0.997 ± 0.018
GAGTGTTGGG | 1.004 ± 0.0052
GAGTTAAGAC | 0.991 ± 0.049
GAGTTCCTGT | 1.01 ± 0.014
GAGTTGGGAG | 1.01 ± 0.032
GAGTTGGTAG | 0.969 ± 0.021

Sequence | switch fluorescence ratio
GAGTTGGTCT | 1 ± 0.027
GAGTTTAATT | 0.999 ± 0.038
GAGTTTAGGT | 1.02 ± 0.011
GAGTTTGAGT | 0.982 ± 0.035
GAGTTTGGGT | 0.985 ± 0.032
GAGTTTTCTA | 0.9987 ± 0.0081
GAGTTTTTTG | 1.03 ± 0.039
GATAAAAGCG | 0.994 ± 0.0015
GATAAATAAA | 1 ± 0.02
GATAAATGGG | 0.994 ± 0.024
GATAAATGTT | 0.985 ± 0.01
GATAAGATGG | 0.979 ± 0.034
GATAAGGAAG | 1.02 ± 0.011
GATACAGCTA | 1.03 ± 0.042
GATACAGTAA | 1.06 ± 0.017
GATACATGGG | 0.985 ± 0.038
GATACCGGGT | 1.01 ± 0.022
GATACCTTTG | 1.72 ± 1
GATACGGACA | 1.42 ± 0.019
